From the RNAGym collection of RNA variant scans (doi:10.7554/elife.90254)

B1: LINE1-mini (parent)
chain: GGCAGAGCUCAACACAGCGUGGCAAAGUGGCUGUGGCUAGACUGCC

Variants of: B1
Test: self-cleavage, relative activity (ratio to wild type); higher = more cleavage; in vitro, sequencing; the parent is a self-cleaving ribozyme

Variant | self-cleavage
G5C U32G | 0.07
G5C U32C | 0.1
G5C U32A | 0.06
G5U C13A | 0.09
G5U C13U | 0.11
G5U C13G | 0.23
G5C A41U | 0.09
G5C A41C | 0.04
G5C A41G | 0.07
G5U | 0.14
G5C | 0.07
G5U G19U | 0.1
G5U G19A | 0.33
G5U G19C | 0.05
G5C G19U | 0.14
G5C G19A | 0.14
G5C G19C | 0.08
G5A U38C | 0.09
G5A U38A | 0.16
G5A U38G | 0.02
G5A U20A | 0.13
G5A U20G | 0.13
G5A U20C | 0.06
G5U G21C | 0.09

Variant | self-cleavage
G5U G21A | 0.28
G5U G21U | 0.1
G5C C42A | 0.09
G5C C42U | 0.05
G5C C42G | 0.46
G5A G7U | 0.26
G5A G7C | 0.23
G5A G7A | 0.35
G5U C23G | 0.12
G5U C23A | 0.11
G5U C23U | 0.12
G5A G35A | 0.1
G5A G35U | 0.26
G5A G35C | 0.08
G5A G21A | 0.25
G5A G21C | 0.13
G5A G21U | 0.14
G5A G44A | 0.1
G5A G44U | 0.07
G5A G44C | 0.06
G5A G30U | 0.19
G5A G30C | 0.12
G5A G30A | 0.22
G5U U32A | 0.07

Variant | self-cleavage
G5U U32C | 0.07
G5U U32G | 0.09
G5U C8G | 0.14
G5U C8A | 0.53
G5U C8U | 0.26
G5U U43A | 0.08
G5U U43G | 0.1
G5U U43C | 0.06
G5C U20C | 0.18
G5C U20A | 0.04
G5C U20G | 0.06
G5U C42G | 0.04
G5U C42A | 0.38
G5U C42U | 0.08
G5U U38C | 0.05
G5U U38A | 0.08
G5U U38G | 0.03
G5A C31G | 0.05
G5A C31U | 0.06
G5A C31A | 0.08
G5U G17C | 0.06
G5U G17A | 0.1
G5U G17U | 0.05
G5A U9G | 0.27

Variant | self-cleavage
G5A U9C | 0.04
G5A U9A | 0.35
G5C C46G | 0.11
G5C C46U | 0.06
G5C C46A | 0.09
G5C U43G | 0.13
G5C U43A | 0.05
G5C U43C | 0.04
G5U A39U | 0.11
G5U A39C | 0.06
G5U A39G | 0.04
G5A C42A | 0.13
G5A C42G | 0.07
G5A C42U | 1.53
G5C C8G | 0.07
G5C C8A | 0.18
G5C C8U | 0.11
G5C C23A | 0.07
G5C C23U | 0.05
G5C C23G | 0.04
G5C G29A | 0.05
G5C G29U | 0.12
G5C G29C | 0.05
G5U A25C | 0.05

Variant | self-cleavage
G5U A25U | 0.08
G5U A25G | 0.12
G5C C45U | 0.06
G5C C45A | 0.05
G5C C45G | 0.05
G5U C46A | 0.11
G5U C46G | 0.13
G5U C46U | 0.07
G5A U28C | 0.14
G5A U28G | 0.2
G5A U28A | 0.12
G5A G19U | 0.11
G5A G19A | 0.29
G5A G19C | 0.06
G5U G35C | 0.06
G5U G35U | 0.15
G5U G35A | 0.08
G5U U28G | 0.09
G5U U28C | 0.09
G5U U28A | 0.06
G5C G36C | 0.06
G5C G36U | 0.04
G5C G36A | 0.06
G5C C13U | 0.05

Variant | self-cleavage
G5C C13A | 0.09
G5C C13G | 0.13
G5A U32A | 0.06
G5A U32G | 0.04
G5A U32C | 0.07
G5C A11U | 0.03
G5C A11C | 0.04
G5C A11G | 0.05
G5C G40A | 0.1
G5C G40U | 0.1
G5C G40C | 0.1
G5U C10U | 0.06
G5U C10G | 0.03
G5U C10A | 0.03
G5U A11U | 0.04
G5U A11G | 0.02
G5U A11C | 0.03
G5C G30C | 0.07
G5C G30U | 0.17
G5C G30A | 0.02
G5U A14G | 0.06
G5U A14U | 0.07
G5U A14C | 0.06
G5C G21C | 0.04

Variant | self-cleavage
G5C G21U | 0.09
G5C G21A | 0.1
G5U C18G | 0.06
G5U C18A | 0.07
G5U C18U | 0.1
G5A G22A | 0.18
G5A G22U | 0.14
G5A G22C | 0.13
G5A U43G | 0.86
G5A U43C | 0.07
G5A U43A | 0.05
G5A C46A | 0.11
G5A C46U | 0.12
G5A C46G | 0.16
G5A C45A | 0.22
G5A C45G | 0.14
G5A C45U | 0.12
G5A C37A | 0.06
G5A C37U | 0.13
G5A C37G | 0.05
A6C A12C | 0.06
G5U G7A | 0.43
G5U G7C | 0.11
G5U G7U | 0.13

Variant | self-cleavage
A6C | 0.71
G5U C37G | 0.07
G5U C37A | 0.06
G5U C37U | 0.05
A6C A11C | 0.05
A6C A11U | 0.1
A6C A11G | 0.02
G5U G36C | 0.04
G5U G36U | 0.57
G5U G36A | 0.33
G5A U34C | 0.08
G5A U34A | 0.07
G5A U34G | 0.04
G5U U34C | 0.07
G5U U34G | 0.04
G5U U34A | 0.04
G5C G22U | 0.04
G5C G22A | 0.08
G5C G22C | 0.13
G5C U38C | 0.05
G5C U38G | 0.03
G5C U38A | 0.09
G5C G33U | 0.06
G5C G33A | 0.09

Variant | self-cleavage
G5C G33C | 0.03
G5U C31U | 0.06
G5U C31G | 0.05
G5U C31A | 0.04
G5C G7U | 0.25
G5C G7A | 0.22
G5C G7C | 0.08
G5A G29C | 0.07
G5A G29A | 0.1
G5A G29U | 0.13
G5A G27U | 0.08
G5A G27C | 0.07
G5A G27A | 0.1
G5C C10G | 0.02
G5C C10A | 0.05
G5C C10U | 0.04
G5C A12C | 0.04
G5C A12G | 0.05
G5C A12U | 0.05
G5C C18U | 0.03
G5C C18G | 0.04
G5C C18A | 0.05
G5C A25U | 0.09
G5C A25G | 0.06

Variant | self-cleavage
G5C A25C | 0.05
G5U G27U | 0.11
G5U G27A | 0.06
G5U G27C | 0.05
G5C A39U | 0.06
G5C A39G | 0.07
G5C A39C | 0.07
G5U G33U | 0.05
G5U G33A | 0.04
G5U G33C | 0.06
G5C C15A | 0.05
G5C C15G | 0.03
G5C C15U | 0.08
G5A G40A | 0.11
G5A G40U | 0.1
G5A G40C | 0.04
G5A G33C | 0.09
G5A G33A | 0.1
G5A G33U | 0.05
G5U G29A | 0.15
G5U G29C | 0.04
G5U G29U | 0.12
G5U C45G | 0.08
G5U C45A | 0.08

Variant | self-cleavage
G5U C45U | 0.08
G5C G44C | 0.04
G5C G44U | 0.09
G5C G44A | 0.05
G5A G36C | 0.05
G5A G36A | 0.28
G5A G36U | 0.14
G5C G27A | 0.05
G5C G27U | 0.09
G5C G27C | 0.06
G5U A16G | 0.06
G5U A16U | 0.06
G5U A16C | 0.03
G5U G30U | 0.26
G5U G30A | 0.18
G5U G30C | 0.05
G5C A26G | 0.05
G5C A26C | 0.06
G5C A26U | 0.06
G5C A16C | 0.07
G5C A16G | 0.04
G5C A16U | 0.04
G5C U9C | 0.04
G5C U9G | 0.04

Variant | self-cleavage
G5C U9A | 0.12
G5C U34G | 0.06
G5C U34A | 0.06
G5C U34C | 0.06
G5A C23G | 0.29
G5A C23U | 0.14
G5A C23A | 0.14
G5U G40U | 0.09
G5U G40A | 0.06
G5U G40C | 0.05
G5C C31A | 0.08
G5C C31U | 0.05
G5C C31G | 0.06
G5U A41U | 0.08
G5U A41G | 0.06
G5U A41C | 0.07
G5U A12U | 0.06
G5U A12G | 0.04
G5U A12C | 0.04
G5U G44C | 0.06
G5U G44U | 0.06
G5U G44A | 0.08
G5C A6C | 0.23
G5C A6G | 0.09

Variant | self-cleavage
G5C A6U | 0.06
G5U A24C | 0.08
G5U A24U | 0.08
G5U A24G | 0.19
G5U U20C | 0.05
G5U U20A | 0.06
G5U U20G | 0.06
G5A G17C | 0.39
G5A G17U | 0.11
G5A G17A | 0.08
G5U C15A | 0.05
G5U C15G | 0.09
G5U C15U | 0.08
G5U U9A | 0.36
G5U U9C | 0.05
G5U U9G | 0.11
G5C G17A | 0.04
G5C G17C | 0.03
G5C G17U | 0.04
G5C C37G | 0.05
G5C C37A | 0.05
G5C C37U | 0.09
G5A C18G | 0.09
G5A C18U | 0.14

Variant | self-cleavage
G5A C18A | 0.1
G5C U28C | 0.05
G5C U28G | 0.02
G5C U28A | 0.1
G5U G22U | 0.18
G5U G22A | 0.16
G5U G22C | 0.06
G5U A26G | 0.12
G5U A26C | 0.11
G5U A26U | 0.09
G5C A14U | 0.06
G5C A14C | 0.07
G5C A14G | 0.04
G5C G35A | 0.1
G5C G35U | 0.07
G5C G35C | 0.06
G5U A6U | 0.16
G5U A6G | 0.07
G5U A6C | 0.16
G5C A24C | 0.04
G5C A24G | 0.06
G5C A24U | 0.07
